Reference: patent US20230416356A1 (SCOUT BIO, published 2023)

T1: canine IL-31 alanine-scanning peptide (residues 18-42 of SEQ ID NO:1) S42A (canine)
T1 construct: See note of m18; also called S42A peptide
T1 peptide: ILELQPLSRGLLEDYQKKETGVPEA

T2: canine IL-31 alanine-scanning peptide (residues 18-42 of SEQ ID NO:1) L29A (canine)
T2 construct: also called L29A peptide
T2 peptide: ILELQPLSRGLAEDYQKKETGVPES

T3: canine IL-31 alanine-scanning peptide (residues 18-42 of SEQ ID NO:1) K35A (canine)
T3 construct: See note of m18; also called K35A peptide
T3 peptide: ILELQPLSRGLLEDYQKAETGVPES

T4: canine IL-31 alanine-scanning peptide (residues 18-42 of SEQ ID NO:1) V39A (canine)
T4 construct: See note of m18; also called V39A peptide
T4 peptide: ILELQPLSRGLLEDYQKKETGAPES

T5: canine IL-31 alanine-scanning peptide (residues 18-42 of SEQ ID NO:1) Q33A (canine)
T5 construct: See note of m18; also called Q33A peptide
T5 peptide: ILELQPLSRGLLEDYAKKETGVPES

T6: canine IL-31 alanine-scanning peptide (residues 18-42 of SEQ ID NO:1) Y32A (canine)
T6 construct: See note of m18; also called Y32A peptide
T6 peptide: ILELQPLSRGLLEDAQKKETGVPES

T7: canine IL-31 alanine-scanning peptide (residues 18-42 of SEQ ID NO:1) P40A (canine)
T7 construct: See note of m18; also called P40A peptide
T7 peptide: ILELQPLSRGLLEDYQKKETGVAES

T8: Recombinant canine IL-31 (ProSpec-Tany); amino acid residues 24-159 of Accession no. NP_001159386; SEQ ID … (canine)
T8 chain: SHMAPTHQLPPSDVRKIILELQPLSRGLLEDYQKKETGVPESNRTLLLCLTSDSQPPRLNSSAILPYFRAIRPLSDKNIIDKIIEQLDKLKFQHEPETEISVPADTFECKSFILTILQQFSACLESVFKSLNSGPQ

T9: Canine IL-31_4xMUT_combo (SEQ ID NO: 74) (canine)
T9 construct: See note of m25; the entry already carries the substitutions, the leader and the His tag; also called all 4 residues (L29, Y32, Q33, and P40) substituted for alanine in combination
T9 chain: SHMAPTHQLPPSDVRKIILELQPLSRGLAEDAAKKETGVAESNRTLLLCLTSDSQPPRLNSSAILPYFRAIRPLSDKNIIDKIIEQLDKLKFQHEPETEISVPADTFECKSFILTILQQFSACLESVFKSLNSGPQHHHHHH

T10: human IL-31 (human, UniProt Q6EBC2 24-164)
T10 construct: also called hIL-31
T10 sequence (looked up): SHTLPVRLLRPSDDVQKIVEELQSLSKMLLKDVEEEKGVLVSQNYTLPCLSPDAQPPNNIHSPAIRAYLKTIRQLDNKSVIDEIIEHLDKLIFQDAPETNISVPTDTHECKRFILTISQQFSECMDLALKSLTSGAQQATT


Tests used:
[1] = molecular target: T1, canine IL-31 alanine-scanning peptide …; test: ELISA on alanine-scanning peptides, normalised to the first peptide of the series
Method: (§1) Binding to the various IL-31 proteins and peptides was assessed by ELISA. IL-31 proteins or peptides (100 ng/well) were immobilized to polystyrene microplates as capture antigen. Wells were blocked with PBS/0.05% Tween 20/1% BSA. Coated wells were incubated for 1 h at room temperature with anti-IL-31 mAbs diluted in PBS/0.05% Tween 20/1% BSA (100 μl/well). After washing, the plates were incubated with a 1/10,000 dilution […] Rabbit Anti-Dog IgG (whole molecule) (Sigma) in PBS/0.05% Tween 20/1% BSA. Plates were washed with PBS/0.05% Tween 20 and developed by the addition of TMB substrate. Development was stopped by the addition of 100 ul ELISA stop Solution (Invitrogen) and absorbance of each well was determined at an optical density (OD) of 450 nm.
(§2) An alanine-scanning peptide library of the region encompassing amino acid residues 18-42 of SEQ ID NO:1 was generated ([…]; SEQ ID NO:79), consisting of 25 peptides, each with a single alanine mutation at a different residue. Binding of the RA4 mAb to each of the peptides was determined by ELISA, as detailed above.

[2] = molecular target: T2, canine IL-31 alanine-scanning peptide …; test: as above
Method: as §1, §2

[3] = molecular target: T3, canine IL-31 alanine-scanning peptide …; test: as above
Method: as §1, §2

[4] = molecular target: T4, canine IL-31 alanine-scanning peptide …; test: as above
Method: as §1, §2

[5] = molecular target: T5, canine IL-31 alanine-scanning peptide …; test: as above
Method: as §1, §2

[6] = molecular target: T6, canine IL-31 alanine-scanning peptide …; test: as above
Method: as §1, §2

[7] = molecular target: T7, canine IL-31 alanine-scanning peptide …; test: as above
Method: as §1, §2

[8] = molecular target: T8, Recombinant canine IL-31 (ProSpec-Tany; …); test: cell-based or functional assay
[9] = molecular target: T9, Canine IL-31_4xMUT_combo (SEQ ID NO: 74); test: ELISA, protein coated (100 ng/well)
Method: as §1
Confirmation of the unique epitope targeted by RA4 mAb was performed by assessing the binding of RA4 mAb to full length canine IL-31 proteins that contained each of the 4 key residues identified above, substituted for alanine, and a version with all 4 residues substituted for alanine in combination. […] Binding of RA4 mAb and M14 mAb to each of the proteins was determined by ELISA, as detailed above. […] When all 4 residues (L29, Y32, Q33, and P40) were substituted for alanine in combination, no binding to canine IL-31 was detected. […]

human IL-31 = molecular target: T10, human IL-31; test: ELISA, antigen coated
[10] = molecular target: T8, Recombinant canine IL-31 (ProSpec-Tany; …); test: hybridoma screen, microarray ELISA format

Binder	binding as a percentage of binding to the first peptide in the series [1] [%]	binding as a percentage of binding to the first peptide in the series [2] [%]	binding as a percentage of binding to the first peptide in the series [3] [%]	binding as a percentage of binding to the first peptide in the series [4] [%]	binding as a percentage of binding to the first peptide in the series [5] [%]	binding as a percentage of binding to the first peptide in the series [6] [%]	binding as a percentage of binding to the first peptide in the series [7] [%]	inhibition of canine IL-31-induced STAT-3 phosphorylation in canine DH82 cells (IC50) [8] [µg/mL]	binding result [9]	binding result (human IL-31)	binding result [10]
chimeric monoclonal antibody RA4 (chRA4) (antibody, V domains shown, also called chimeric RA4; chimeric RA4.D2 antibody) VH: QIQLVQSGPELKKPGETVKISCKASGYTFTDYSMHWVKQAPGKGLRWMGWINTETGKTIHAEDFKGRVAFSLETSASTAYLQINNLKNEDTATYFCASGRPDYWGQGTTLTVSS VL: DIVLSQSPASLAVSLGQRATISCRASESVEYYGTSLMQWYQQKPGQPPKLLIYAASGVESGVPARFSGSGSGTDFSLIIHPVEEDDIAMYFCQQSRKVPYTFGGGTKLEIKR	< 50	< 15	< 50	< 50	< 15	< 15	< 15	1.5	no binding	no binding	
murine monoclonal antibody RA4.D2 (antibody, V domains shown, Mouse hybridoma antibody with a kappa light chain; also called murine RA4) VH: QIQLVQSGPELKKPGETVKISCKASGYTFTDYSMHWVKQAPGKGLRWMGWINTETGKTIHAEDFKGRVAFSLETSASTAYLQINNLKNEDTATYFCASGRPDYWGQGTTLTVSS VL: DIVLSQSPASLAVSLGQRATISCRASESVEYYGTSLMQWYQQKPGQPPKLLIYAASGVESGVPARFSGSGSGTDFSLIIHPVEEDDIAMYFCQQSRKVPYTFGGGTKLEIKR											binds
